This note sets out measurements from paper PMC11938149.

This experiment concerns the target T1, Bacillus subtilis FtsZ^1-382 (for light scattering) (Bacillus subtilis) (UniProt P17865).
T1 sequence: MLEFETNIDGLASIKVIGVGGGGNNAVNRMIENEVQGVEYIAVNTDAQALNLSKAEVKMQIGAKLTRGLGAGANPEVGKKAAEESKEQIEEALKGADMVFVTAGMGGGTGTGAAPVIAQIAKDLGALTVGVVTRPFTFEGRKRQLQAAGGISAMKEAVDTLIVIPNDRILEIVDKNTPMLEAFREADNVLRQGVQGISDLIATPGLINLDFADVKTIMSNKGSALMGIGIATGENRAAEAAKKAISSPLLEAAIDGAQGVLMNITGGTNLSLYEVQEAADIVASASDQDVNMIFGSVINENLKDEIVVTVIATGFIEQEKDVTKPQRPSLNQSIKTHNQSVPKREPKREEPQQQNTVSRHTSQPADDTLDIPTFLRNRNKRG

B1: Bacillus subtilis MinC^1-224 wild type (for light scattering) (natural protein)
chain: MKTKKQQYVTIKGTKNGLTLHLDDACSFDELLDGLQNMLSIEQYTDGKGQKISVHVKLGNRFLYKEQEEQLTELIASKKDLFVHSIDSEVITKKEAQQIREEAEIISVSKIVRSGQVLQVKGDLLLIGDVNPGGTVRAGGNIFVLGSLKGIAHAGFNGNNQAVIAASEMLPTQLRINHVLNRSPDHIQKGNEMECAYLDTDGNMVIERLQHLAHLRPDLTRLEG
B1 registered an inhibition of FtsZ polymerization by light scattering (5 uM FtsZ, 15 uM MinC, HMK buffer pH 7.7, 100 mM potassium) of 50%.
